Laboratory results taken from patent US20240279288A1 (ANYANG INSTITUTE OF SINO COTTON INDUSTRY INNOVATION, published 2024).

Columns and labels:
NMYC = molecular target: T1, NMYC (human, UniProt P04198 1-464); experiment: yeast two hybrid
T1 construct: In pGADT7 (AD fusion) for yeast two hybrid
T1 sequence (looked up): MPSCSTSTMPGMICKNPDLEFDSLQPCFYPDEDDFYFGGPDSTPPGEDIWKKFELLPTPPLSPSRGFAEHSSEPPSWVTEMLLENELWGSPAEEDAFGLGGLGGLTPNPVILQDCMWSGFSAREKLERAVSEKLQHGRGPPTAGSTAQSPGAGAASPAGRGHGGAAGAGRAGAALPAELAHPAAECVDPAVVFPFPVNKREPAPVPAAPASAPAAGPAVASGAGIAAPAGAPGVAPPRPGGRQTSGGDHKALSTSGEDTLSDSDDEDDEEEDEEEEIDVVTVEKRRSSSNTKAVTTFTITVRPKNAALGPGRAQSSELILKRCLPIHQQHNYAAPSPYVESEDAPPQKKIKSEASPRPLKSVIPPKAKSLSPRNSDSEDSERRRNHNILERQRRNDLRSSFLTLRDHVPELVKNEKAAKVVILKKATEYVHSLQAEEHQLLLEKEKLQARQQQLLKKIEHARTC

uPAR-D1D2 = molecular target: T2, uPAR-D1D2 (Homo sapiens (Human), UniProt Q03405 23-335, limits assumed); experiment: yeast two hybrid
T2 construct: It is tied to 'D3 domain deficient uPAR' by its name only; also called D3 domain deficient uPAR

GhNINJA = molecular target: T3, GhNINJA (cotton); experiment: yeast two hybrid
T3 chain: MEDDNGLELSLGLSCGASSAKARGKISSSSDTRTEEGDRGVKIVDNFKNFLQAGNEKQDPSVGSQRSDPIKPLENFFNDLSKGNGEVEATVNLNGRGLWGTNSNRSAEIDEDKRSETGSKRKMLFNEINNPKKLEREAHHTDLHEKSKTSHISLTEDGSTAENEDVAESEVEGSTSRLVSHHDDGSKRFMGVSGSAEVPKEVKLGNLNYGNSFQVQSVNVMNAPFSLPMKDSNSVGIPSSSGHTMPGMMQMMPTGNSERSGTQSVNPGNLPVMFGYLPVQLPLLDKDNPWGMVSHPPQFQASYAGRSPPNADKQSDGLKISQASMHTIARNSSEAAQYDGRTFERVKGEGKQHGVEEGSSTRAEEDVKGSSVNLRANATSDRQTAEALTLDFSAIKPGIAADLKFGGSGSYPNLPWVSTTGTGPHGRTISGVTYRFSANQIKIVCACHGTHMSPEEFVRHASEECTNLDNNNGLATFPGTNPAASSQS

GhTPL = molecular target: T4, GhTPL (cotton); experiment: yeast two hybrid
T4 chain: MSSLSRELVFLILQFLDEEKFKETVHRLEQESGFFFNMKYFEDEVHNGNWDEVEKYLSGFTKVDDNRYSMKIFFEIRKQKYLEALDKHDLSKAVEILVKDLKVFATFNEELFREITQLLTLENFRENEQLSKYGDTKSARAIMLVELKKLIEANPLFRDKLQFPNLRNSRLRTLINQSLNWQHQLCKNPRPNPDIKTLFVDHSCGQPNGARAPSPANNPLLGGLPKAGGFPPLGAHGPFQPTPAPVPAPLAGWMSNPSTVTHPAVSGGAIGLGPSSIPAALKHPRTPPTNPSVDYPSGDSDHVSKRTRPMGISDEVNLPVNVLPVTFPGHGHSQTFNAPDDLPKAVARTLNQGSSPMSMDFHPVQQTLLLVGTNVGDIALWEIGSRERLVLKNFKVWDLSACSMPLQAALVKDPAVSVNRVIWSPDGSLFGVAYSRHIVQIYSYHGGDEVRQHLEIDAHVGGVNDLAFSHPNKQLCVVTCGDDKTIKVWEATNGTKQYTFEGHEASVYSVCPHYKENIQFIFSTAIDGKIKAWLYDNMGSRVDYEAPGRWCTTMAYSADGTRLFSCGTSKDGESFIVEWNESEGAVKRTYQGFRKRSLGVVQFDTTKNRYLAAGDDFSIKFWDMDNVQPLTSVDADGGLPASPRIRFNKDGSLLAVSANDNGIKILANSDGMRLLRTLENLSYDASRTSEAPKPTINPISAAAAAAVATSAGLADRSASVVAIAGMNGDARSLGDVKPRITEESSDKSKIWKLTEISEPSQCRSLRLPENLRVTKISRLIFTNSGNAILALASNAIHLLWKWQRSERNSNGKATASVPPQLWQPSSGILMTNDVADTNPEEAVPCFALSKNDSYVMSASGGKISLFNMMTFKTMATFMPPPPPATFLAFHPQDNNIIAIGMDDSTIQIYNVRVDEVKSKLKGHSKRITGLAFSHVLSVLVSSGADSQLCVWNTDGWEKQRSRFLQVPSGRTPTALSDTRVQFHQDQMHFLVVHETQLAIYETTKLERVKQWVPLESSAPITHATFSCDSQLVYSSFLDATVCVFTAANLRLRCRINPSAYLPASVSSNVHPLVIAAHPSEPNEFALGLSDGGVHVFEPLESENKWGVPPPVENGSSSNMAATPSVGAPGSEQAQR

GhHDA6 = molecular target: T5, GhHDA6 (cotton); experiment: yeast two hybrid
T5 chain: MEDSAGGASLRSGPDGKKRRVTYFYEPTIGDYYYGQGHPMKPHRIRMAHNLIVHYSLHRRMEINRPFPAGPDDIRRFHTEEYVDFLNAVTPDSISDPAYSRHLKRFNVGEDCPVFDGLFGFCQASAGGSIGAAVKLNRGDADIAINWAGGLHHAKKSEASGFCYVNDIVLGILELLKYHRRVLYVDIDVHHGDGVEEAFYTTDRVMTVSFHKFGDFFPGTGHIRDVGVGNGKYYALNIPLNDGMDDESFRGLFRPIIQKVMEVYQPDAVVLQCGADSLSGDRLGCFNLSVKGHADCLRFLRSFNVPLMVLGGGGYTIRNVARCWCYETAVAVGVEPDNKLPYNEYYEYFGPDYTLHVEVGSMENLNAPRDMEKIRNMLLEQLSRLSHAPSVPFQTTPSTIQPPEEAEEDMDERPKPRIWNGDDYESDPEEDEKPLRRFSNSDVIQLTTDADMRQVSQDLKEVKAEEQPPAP

c-Myc-150aa = molecular target: T6, c-Myc-150aa (human, UniProt P01106 1-150); experiment: luciferase complementation (FIG. 13 E)
T6 construct: Also tested by LUC, for which the construct is not described; also called first 150 amino acids truncated c-Myc

c-Myc-215aa = molecular target: T7, c-Myc-215aa (human, UniProt P01106 1-215); experiment: luciferase complementation (FIG. 13 E)
T7 construct: Also tested by LUC, for which the construct is not described

GhCOI1 = molecular target: T8, GhCOI1 (cotton); experiment: yeast two hybrid, JA-Ile in the medium
T8 chain: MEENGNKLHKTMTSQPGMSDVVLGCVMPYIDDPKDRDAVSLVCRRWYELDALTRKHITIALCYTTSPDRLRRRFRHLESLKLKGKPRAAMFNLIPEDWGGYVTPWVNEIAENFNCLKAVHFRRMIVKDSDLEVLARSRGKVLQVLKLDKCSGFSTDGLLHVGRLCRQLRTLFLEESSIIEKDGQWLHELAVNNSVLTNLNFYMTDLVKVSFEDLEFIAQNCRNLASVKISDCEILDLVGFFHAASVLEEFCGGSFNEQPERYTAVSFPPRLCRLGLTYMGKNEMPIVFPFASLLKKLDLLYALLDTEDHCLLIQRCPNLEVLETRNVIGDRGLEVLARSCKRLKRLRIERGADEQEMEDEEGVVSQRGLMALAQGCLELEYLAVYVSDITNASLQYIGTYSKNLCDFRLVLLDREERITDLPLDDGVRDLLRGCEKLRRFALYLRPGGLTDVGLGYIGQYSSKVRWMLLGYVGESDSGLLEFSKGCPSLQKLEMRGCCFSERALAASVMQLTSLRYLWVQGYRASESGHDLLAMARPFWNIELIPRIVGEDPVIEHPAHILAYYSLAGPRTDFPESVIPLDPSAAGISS
Method: The study on Arabidopsis had shown that the inhibition of JAZ protein on JA signaling was mainly achieved by inhibiting the transcription factor function of MYC, which had been experimentally verified by us in cotton. Based on the phylogenetic tree of Arabidopsis and cotton JAZs, we screened 6 cotton JAZs (GhJAZ1, GhJAZ7, GhJAZ9, GhJAZ10, GhJAZ11 and GhJAZ31), which were analyzed with GhMYC2, GhNINJA, GhTPL, GhHDA6, and GhCOI1 for yeast two hybrid. The amino acid sequence of GhJAZ1 was set forth in SEQ ID No. 4, and the corresponding encoding gene sequence was set forth in SEQ ID No. 39; the amino acid sequence of GhJAZ7 was set forth in SEQ ID No. 7, and the corresponding encoding gene sequence was set forth in SEQ ID No. 42; the amino acid sequence of GhJAZ9 was set forth in SEQ ID No. 2, and the corresponding encoding gene sequence was set forth in SEQ ID No. 37; the amino acid sequence of GhJAZ10 was set forth in SEQ ID No. 3, and the corresponding encoding gene sequence was set forth in SEQ ID No. 38; the amino acid sequence of GhJAZ11 was set forth in SEQ ID No. 5, and the corresponding encoding gene sequence was set forth in SEQ ID No. 40; and the amino acid sequence of GhJAZ31 was set forth in SEQ ID No. 9, and the corresponding encoding gene sequence was set forth in SEQ ID No. 44. […]

GhMYC2 = GhMYC2 (cotton); experiment: luciferase complementation in tobacco leaves (FIG. 5B)
Method: The constructed plasmids were then transformed into Agrobacterium GV3101 (pSoup-p19) (Shanghai Weidi Company, Cat. No.: AC1003), and placed successively on ice for 5 min, in liquid nitrogen for 5 min, in water bath at 37° C. for 5 min, and on ice for 5 min, and then LB liquid medium was added for cultivation at 28° C. and 220 rpm for 2-3 h, followed by plating onto LB solid plates containing corresponding antibiotics (kanamycin+rifampicin) for cultivation at 28° C. for 2-3 days. Positive monoclonal clones were picked for cultivation after colonies grown out. The corresponding NLUC and CLUC vectors then were mixed and injected into tobacco leaves (1 day in the dark/1 day in the light). Luciferase substrates were applied at the infected leaves before taking images and placed in a dark room for at least 6 min to quench fluorescence, followed by observation on the Nightowl-II LB983 instrument, using IndigoBasic software under the luciferase-5 min setting conditions.

c-Myc = molecular target: T9, c-Myc (human, UniProt P01106 1-454, limits assumed); experiment: luciferase complementation in tobacco leaves (FIG. 6F)
T9 construct: In pGADT7 (AD fusion) for yeast two hybrid, pCAMBIA-NLuc for LUC, pUC-SPYCE for BiFC; also called proto-oncogene c-Myc; full length of c-Myc
Description: Using the method of LUC experiment, c-Myc (NCBI accession number: NM_002467.6) was subcloned to pCAMBIA NLuc vector (Chen, H., et al. “Firefly Luciferase Complementation Imaging Assay for Protein-Protein Interactions in Plants.” Plant Physiology 146.2(2008):368-376.) between the KpnI and SalI cleavage sites, and GhJAZ1 (SEQ ID No. 39) was subcloned to pCAMBIA-CLuc vector (Chen, H., et al. “Firefly Luciferase Complementation Imaging Assay for Protein-Protein Interactions in Plants.” Plant Physiology 146.2(2008):368-376.) between the KpnI and SalI cleavage sites. The constructed recombinant plasmids verified to be positive by sequencing were transformed into Agrobacterium GV3101 (pSoup-p19) (Shanghai Weidi biology technology co., Ltd, Cat. No.: AC1003), which were co-transfected into tobacco leaves. 2-3 days after injection, the infected leaves coated with the fluorescent substrate were placed in a dark chamber of the instrument for at least 6 min before taking images to quench fluorescence, followed by observation on the Nightowl-II LB983 instrument, using IndigoBasic software under the luciferase-5 min setting conditions. Cultivation was performed after co-infection. If there is interaction, LUC luciferase is expressed, and luminescence is detected after substrate application. As shown in F in FIG. 6, GhJAZ1 interacts with c-Myc.

T2 sequence (Q03405 other isoform, or with tags, fused parts or gaps limits assumed): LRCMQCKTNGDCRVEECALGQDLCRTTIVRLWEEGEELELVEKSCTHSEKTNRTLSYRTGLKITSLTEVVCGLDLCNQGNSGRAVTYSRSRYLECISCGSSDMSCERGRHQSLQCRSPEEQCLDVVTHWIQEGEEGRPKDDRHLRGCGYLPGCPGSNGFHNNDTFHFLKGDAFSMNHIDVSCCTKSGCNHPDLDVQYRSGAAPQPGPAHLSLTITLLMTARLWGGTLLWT
T6 sequence (P01106 1-150 limits assumed): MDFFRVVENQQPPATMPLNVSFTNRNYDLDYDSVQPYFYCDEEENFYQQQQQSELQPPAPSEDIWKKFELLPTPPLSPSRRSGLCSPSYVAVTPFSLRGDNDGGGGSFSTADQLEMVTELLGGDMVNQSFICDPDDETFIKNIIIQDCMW
GhMYC2 (cotton), sequence (chain, as listed by the source limits assumed): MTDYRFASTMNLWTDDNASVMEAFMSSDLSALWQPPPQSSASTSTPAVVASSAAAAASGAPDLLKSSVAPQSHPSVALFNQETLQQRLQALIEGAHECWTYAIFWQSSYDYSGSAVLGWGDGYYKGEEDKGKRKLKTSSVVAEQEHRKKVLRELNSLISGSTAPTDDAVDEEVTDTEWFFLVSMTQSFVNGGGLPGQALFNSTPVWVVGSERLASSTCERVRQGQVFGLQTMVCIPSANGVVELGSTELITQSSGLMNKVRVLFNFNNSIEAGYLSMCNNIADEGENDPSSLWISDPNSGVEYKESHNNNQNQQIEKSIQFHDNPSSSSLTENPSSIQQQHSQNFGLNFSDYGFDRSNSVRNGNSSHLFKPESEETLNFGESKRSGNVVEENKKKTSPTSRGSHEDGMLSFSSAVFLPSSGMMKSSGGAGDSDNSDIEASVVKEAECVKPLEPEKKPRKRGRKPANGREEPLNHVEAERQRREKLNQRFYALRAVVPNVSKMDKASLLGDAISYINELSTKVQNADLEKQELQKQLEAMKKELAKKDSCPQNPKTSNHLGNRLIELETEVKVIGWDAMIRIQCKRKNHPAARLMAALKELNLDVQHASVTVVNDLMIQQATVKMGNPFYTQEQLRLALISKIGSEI
T7 sequence (P01106 1-215 limits assumed): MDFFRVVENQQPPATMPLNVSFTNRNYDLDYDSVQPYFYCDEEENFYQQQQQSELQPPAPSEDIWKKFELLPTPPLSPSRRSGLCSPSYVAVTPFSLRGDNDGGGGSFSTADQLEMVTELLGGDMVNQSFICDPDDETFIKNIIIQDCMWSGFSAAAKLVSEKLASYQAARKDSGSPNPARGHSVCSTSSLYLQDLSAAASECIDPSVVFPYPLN
T9 sequence (P01106 whole entry, the tested form may be a part): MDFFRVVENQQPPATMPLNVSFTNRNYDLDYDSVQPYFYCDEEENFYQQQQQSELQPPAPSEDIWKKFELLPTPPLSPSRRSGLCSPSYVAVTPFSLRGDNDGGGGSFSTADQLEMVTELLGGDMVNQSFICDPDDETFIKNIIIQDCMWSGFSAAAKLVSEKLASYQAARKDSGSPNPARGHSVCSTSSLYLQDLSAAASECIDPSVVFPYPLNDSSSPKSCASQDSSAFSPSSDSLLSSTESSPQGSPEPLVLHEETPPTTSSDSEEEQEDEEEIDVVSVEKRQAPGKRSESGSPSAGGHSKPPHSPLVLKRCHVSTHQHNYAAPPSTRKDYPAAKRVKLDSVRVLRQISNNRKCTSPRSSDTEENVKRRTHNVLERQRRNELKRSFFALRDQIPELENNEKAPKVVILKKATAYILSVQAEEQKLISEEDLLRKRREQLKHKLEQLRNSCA

binding result (NMYC): binds | binding result (uPAR-D1D2): no binding | binding result (GhNINJA): binds | binding result (GhTPL): binds | binding result (GhHDA6): binds | binding result (c-Myc-150aa): binds | binding result (c-Myc-215aa): binds | binding result (GhCOI1): binds | binding result (GhMYC2): binds | binding result (c-Myc): binds
B1: GhJAZ1 (other)
chain: MSSCSESTAMKPARSPEKPSFAQTCNLLSQYLKEKGSFGDLSLGMTCNVEANGTPVVPPPTMNLFPLNDKSDDVCGRNGGNPKNLTSMDLFPQQAGLASKDDSPNKLEPQTAPMTIFYGGQVIVFNDFPANKAKEIMLLASNSSSQSNNSFNPIPFTSSIARSPIESSIGVPPTSKPVHPAQRAVPGDLPIARRASLHRFLEKRKDRITAKAPYQINNSAAAPSLSGDNKSWLGLAAQSP
notes: In yeast two hybrid it was expressed from pGBKT7 (BD fusion), in the luciferase experiment from pCAMBIA-CLuc, in BiFC from pUC-SPYNE; also called cotton JAZ1
